Data on four molecules can be found in publication PMC7748003 (Plant Communications, 2019).

The target in series [1] is BES1-MBP (Arabidopsis thaliana, UniProt Q9LN63 1-335). As to the kind of experiment: EMSA. On the technique in general: A gel shift assay detects complexes by their altered migration in electrophoresis.
Series [2] has as its target T1, GST-SMXL6 (Arabidopsis, UniProt Q9LML2 1-979).
T1 sequence (looked up): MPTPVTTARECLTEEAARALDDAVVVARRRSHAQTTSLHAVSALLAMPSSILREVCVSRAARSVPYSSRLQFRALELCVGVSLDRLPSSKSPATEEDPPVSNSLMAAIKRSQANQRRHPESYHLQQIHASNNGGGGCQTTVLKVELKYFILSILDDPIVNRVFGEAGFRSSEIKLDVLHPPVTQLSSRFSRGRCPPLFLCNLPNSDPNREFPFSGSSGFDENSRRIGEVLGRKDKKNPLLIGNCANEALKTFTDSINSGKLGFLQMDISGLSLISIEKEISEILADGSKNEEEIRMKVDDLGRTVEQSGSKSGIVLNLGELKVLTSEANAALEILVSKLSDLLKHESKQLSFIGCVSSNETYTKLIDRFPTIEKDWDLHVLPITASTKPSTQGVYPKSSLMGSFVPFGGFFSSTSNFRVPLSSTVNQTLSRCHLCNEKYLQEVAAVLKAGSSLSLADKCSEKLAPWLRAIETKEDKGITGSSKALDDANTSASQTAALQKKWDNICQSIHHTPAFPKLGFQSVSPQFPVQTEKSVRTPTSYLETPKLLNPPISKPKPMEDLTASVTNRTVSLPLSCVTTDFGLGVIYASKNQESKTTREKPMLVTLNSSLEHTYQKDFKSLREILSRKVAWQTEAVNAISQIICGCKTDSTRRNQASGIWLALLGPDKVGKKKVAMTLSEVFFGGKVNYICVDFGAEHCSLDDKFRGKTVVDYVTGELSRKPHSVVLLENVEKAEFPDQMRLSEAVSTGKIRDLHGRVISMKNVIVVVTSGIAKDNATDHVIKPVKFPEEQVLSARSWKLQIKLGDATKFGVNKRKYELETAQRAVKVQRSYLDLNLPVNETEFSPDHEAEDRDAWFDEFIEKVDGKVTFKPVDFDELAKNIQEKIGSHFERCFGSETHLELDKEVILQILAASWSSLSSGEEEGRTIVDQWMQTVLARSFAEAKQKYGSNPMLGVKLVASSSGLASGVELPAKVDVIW
In words: pull-down.

Series [3] has as its target T2, GST-SMXL7 (Arabidopsis, UniProt O80875 1-1002).
T2 sequence (looked up): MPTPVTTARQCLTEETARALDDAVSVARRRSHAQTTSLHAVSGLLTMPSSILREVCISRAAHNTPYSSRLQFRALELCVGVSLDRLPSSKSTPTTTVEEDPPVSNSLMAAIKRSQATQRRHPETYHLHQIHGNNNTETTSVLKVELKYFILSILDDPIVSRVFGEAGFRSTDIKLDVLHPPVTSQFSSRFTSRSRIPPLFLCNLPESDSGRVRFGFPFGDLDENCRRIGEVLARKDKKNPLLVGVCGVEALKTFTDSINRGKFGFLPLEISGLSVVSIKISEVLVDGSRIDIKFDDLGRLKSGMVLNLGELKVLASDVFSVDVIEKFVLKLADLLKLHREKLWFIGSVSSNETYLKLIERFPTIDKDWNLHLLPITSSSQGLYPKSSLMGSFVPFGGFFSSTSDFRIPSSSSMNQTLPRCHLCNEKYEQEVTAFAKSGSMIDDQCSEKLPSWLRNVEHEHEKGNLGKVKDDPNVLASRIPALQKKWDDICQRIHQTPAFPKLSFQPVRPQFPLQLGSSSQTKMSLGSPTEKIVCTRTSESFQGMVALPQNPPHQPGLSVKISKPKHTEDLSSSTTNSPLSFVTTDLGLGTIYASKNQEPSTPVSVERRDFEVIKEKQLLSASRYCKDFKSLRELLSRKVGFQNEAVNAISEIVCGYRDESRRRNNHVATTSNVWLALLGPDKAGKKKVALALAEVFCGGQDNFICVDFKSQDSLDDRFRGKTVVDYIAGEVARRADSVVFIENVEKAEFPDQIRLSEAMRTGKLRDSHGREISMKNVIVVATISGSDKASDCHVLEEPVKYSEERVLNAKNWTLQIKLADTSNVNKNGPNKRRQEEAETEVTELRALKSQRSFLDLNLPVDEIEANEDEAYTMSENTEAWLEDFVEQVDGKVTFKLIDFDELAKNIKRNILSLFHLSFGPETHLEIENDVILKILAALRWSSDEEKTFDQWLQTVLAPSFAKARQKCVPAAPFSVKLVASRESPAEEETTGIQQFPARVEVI
As to the kind of experiment: pull-down.

In series [4] the target is T3, GST-SMXL8 (Arabidopsis, UniProt F4IGZ2 1-910).
T3 sequence (looked up): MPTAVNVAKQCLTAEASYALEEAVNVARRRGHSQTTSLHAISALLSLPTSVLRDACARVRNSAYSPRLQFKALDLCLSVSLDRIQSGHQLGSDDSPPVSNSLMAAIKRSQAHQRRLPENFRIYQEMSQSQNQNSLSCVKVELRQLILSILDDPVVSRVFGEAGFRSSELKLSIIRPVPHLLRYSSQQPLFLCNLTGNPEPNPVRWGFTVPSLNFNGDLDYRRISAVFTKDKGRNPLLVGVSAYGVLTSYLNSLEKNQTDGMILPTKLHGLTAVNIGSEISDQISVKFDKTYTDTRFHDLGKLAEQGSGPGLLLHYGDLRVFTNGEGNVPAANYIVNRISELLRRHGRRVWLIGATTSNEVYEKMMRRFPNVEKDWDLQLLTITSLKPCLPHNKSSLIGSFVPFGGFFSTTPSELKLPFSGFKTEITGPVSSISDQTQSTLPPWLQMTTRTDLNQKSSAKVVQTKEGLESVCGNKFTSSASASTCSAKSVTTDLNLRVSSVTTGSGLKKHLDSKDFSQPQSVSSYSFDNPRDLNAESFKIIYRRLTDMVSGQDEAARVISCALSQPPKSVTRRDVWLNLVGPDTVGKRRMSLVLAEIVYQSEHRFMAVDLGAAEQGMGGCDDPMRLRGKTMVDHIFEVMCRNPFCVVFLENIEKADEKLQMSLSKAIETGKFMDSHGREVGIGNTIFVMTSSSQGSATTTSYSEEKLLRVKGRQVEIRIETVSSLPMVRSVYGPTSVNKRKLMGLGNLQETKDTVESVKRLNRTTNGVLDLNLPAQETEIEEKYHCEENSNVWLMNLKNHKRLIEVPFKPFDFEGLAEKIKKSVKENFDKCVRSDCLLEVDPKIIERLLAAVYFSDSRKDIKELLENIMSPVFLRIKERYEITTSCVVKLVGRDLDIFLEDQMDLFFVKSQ
In words: pull-down.

B1: BRC1 promoter probe b (fragment F4) (dsDNA)
DNA 1: AACATAAACAAACACAAGGTCCTAATTATAGAAAAAAATC
DNA 2: GATTTTTTTCTATAATTAGGACCTTGTGTTTGTTTATGTT
On to B1, for which the binding result in series [1] is given as “binds”.

B2: BRC1 promoter probe c (fragment F5) (dsDNA)
DNA 1: AAGAAGATTATAGTACAAGTGTCATTCTCAAAATTTTGTC
DNA 2: GACAAAATTTTGAGAATGACACTTGTACTATAATCTTCTT
For B2, in series [1], the binding result was “binds”.

B3: MBP-BES1 (natural protein, Arabidopsis, UniProt Q9LN63 1-335, looked up)
chain: MTSDGATSTSAAAAAAAMATRRKPSWRERENNRRRERRRRAVAAKIYTGLRAQGNYNLPKHCDNNEVLKALCSEAGWVVEEDGTTYRKGHKPLPGDMAGSSSRATPYSSHNQSPLSSTFDSPILSYQVSPSSSSFPSPSRVGDPHNISTIFPFLRNGGIPSSLPPLRISNSAPVTPPVSSPTSRNPKPLPTWESFTKQSMSMAAKQSMTSLNYPFYAVSAPASPTHHRQFHAPATIPECDESDSSTVDSGHWISFQKFAQQQPFSASMVPTSPTFNLVKPAPQQLSPNTAAIQEIGQSSEFKFENSQVKPWEGERIHDVAMEDLELTLGNGKAHS
For the molecule B3, the binding result in series [2], in series [3] and in series [4] was “binds” each time.

B4: BRC1 promoter probe a (fragment F2) (dsDNA)
DNA 1: GAACAAATGCAATATATCAATAGTTAGTGTACATATGAAG
DNA 2: CTTCATATGTACACTAACTATTGATATATTGCATTTGTTC
With B4, in series [1], the binding result is “binds”.
